Where “and” joins values, the source holds several entries; their conditions need not be identical. Equal entries are not always repeated.
B1: Azurin, P00282 (parent)
chain: MLRKLAAVSLLSLLSAPLLAAECSVDIQGNDQMQFNTNAITVDKSCKQFTVNLSHPGNLPKNVMGHNWVLSTAADMQGVVTDGMASGLDKDYLKPDDSRVIAHTKLIGSGEKDSVTFDVSKLKEGEQYMFFCTFPGHSALMKGTLTLK

Variants of: B1
Details: Pseudomonas aeruginosa (strain ATCC 15692 / DSM 22644 / CIP 104116 / JCM 14847 / LMG 12228 / 1C / PRS 101 / PAO1); pH 7.5; 20 °C; GdnHCl; Fluorescence; Tris 30 mM; reversible: Yes; structure 5AZU; whole UniProt chain shown

| Variant | ddG of mutation (higher = less stable) | denaturant m value | denaturant midpoint (higher = more stable) | unfolding free energy |
| --- | --- | --- | --- | --- |
| C132S | -1.57 kcal/mol and -2.09 kcal/mol and -0.96 kcal/mol | 5.21 kcal/mol/M and 5.82 kcal/mol/M and 4.73 kcal/mol/M | 2.09 M and 1.85 M and 2.17 M | 10.9 kcal/mol and 11.4 kcal/mol and 10.3 kcal/mol |

Same assay, conditions: Pseudomonas aeruginosa (strain ATCC 15692 / DSM 22644 / CIP 104116 / JCM 14847 / LMG 12228 / 1C / PRS 101 / PAO1); pH 7.5; -15 °C; GdnHCl; Fluorescence; Tris 30 mM; NaCl 5.0 M; reversible: Yes; structure 5AZU; whole UniProt chain shown

| Variant | denaturant m value | denaturant midpoint (higher = more stable) | unfolding free energy |
| --- | --- | --- | --- |
| C132S | 6.69 kcal/mol/M and 6.81 kcal/mol/M and 5.02 kcal/mol/M | 1.35 M and 1.38 M and 1.4 M | 9.05 kcal/mol and 9.4 kcal/mol and 7.01 kcal/mol |

Source: FireProtDB (doi:10.1021/bi702473g)
